Among the data in article PMC12789631 are Km values, retold here.

This series relates to CCCCC[C@H](O)/C=C/[C@H]1[C@H](O)CC(=O)[C@@H]1C/C=C\CCCC(=O)O. Briefly: cells, lysate or membranes.

For orientation: Km means the concentration of substrate that gives half-maximal velocity.

Consider “prostaglandin transporter PGT (OATP2A1) (Homo sapiens; S346A)”, for which the Km was 1.14 µM.
